Experimental data from publication doi:10.1101/2023.04.01.535202, “Three small partner proteins facilitate the type VII-dependent secretion export of an antibacterial nuclease” (bioRxiv, 2023).

B1: EsaDEG complex (complex)
chain 1: MTKDIEYLTADYDNEKSSIQSVIDAIEGQDFLDVDTTMDDAVSDVSSLDEDGAISLTSSVVGPQGSKLMGYYQNELYDYASQLDSKMKEIIDTPFIEDIDKAFKGITNVKLENILIKNGGGHGRDTYGASGKIAKGDAKKSDSDVYSIDEILKSDQEFVKVIDQHYKEMKKEDKKLSKSDFEKMMTQGASCDYMTVAEAEELEEQKKKEEAIEIAALAGMVVLSCINPVAGAVAIGAYSAYSAANAATGKNIVTGRKLSKEERIMEGLSLIPLPGMGFLKGAGKSLMKLGFKGGEKFAVKTGLQKTMQQAVSRISPKMGMMKNSVLNQSRNFAQNTHVGQMLSNMRGQATHTVQQSRNWIGQQAQNVKRIVNNGLDKEIAHPFKQQLAPAGMGGIKFAETTTLRNMGQNIKRAVTPQNHVTHGPKDSMVRSEGKHSISSHEMNSSKYVESPNYTKVEFGEHYARLRPKKLKANIEYTTPTGHIYRTDHKGRIKEVYVDNLSLKDGDRNSHAQRTVGGEDRLPDDDGGALIARMFGGSKDIDNLVAQSKFINRPFKEKGHWYNLEKEWQEFLNSGKEVKNIKMEVKYSGNSQRPTIFKVEYEINGERNIRRILNK
chain 2: MKDVKRIDYFSYEELTILGGSKLPLVNFELFDPSNFEEAKAALIEKELVTENDKLTDAGFKVATLVREYISAIVNIRINDMYFAPFSYEKDEYILLSRFKNNGFQIRIINKDIAWWSIVQSYPLLMRQEKSNDWDFKQIDDETLENLNNESIDTIGRVLEIEIYNHQGDPQQSLYNIYEQNDLLFIRYPLKDKVLNVHIGVINTFIRELFGFDTDENHINKAEE
chain 3: MTFEEKLSKIYNEIANEISSMIPVEWEKVYTMAYIDDGGGEVFFNYTKPGSDDLNYYTNIPKEYNISVQVFDDLWMDLYDLFEELRDLFKEEDLEPWTSCEFDFTREGELKVSFDYIDWINSEFGQIGRQNYYKYRKFGILPETEYEINKVKEIEQYIKELEE
notes: EsaD nuclease toxin of S. aureus, as m1; EsaE of S. aureus, as m2; EsaG of S. aureus, as m3; Cross-linked with glutaraldehyde for the experiment on dimers-of-trimers and for cryo-EM; also called EsaDEG trimer; not shown: His6, C-terminal, kept; copies: + +
B2: EsaDEG-EsxBCD complex (complex)
chain 1: B1 chain 1
chain 2: B1 chain 2
chain 3: B1 chain 3
chain 4: MGGYKGIKADGGKVDQAKQLAAKTAKDIEACQKQTQQLAEYIEGSDWEGQFANKVKDVLLIMAKFQEELVQPMADHQKAIDNLSQNLAKYDTLSIKQGLDRVNP
chain 5: MNFNDIETMVKSKFKDIKKHAEEIAHEIEVRSGYLRKAEQYKRLEFNLSFALDDIESTAKDVQTAKSSANKDSVTVKGKAPNTLYIEKRNLMKQKLEMLGEDIDKNKESLQKAKEIAGEKASEYFNKAMN
chain 6: MTLSGKISVKAETIAHVVKELESISQKYDEIAQNFGKIAQLNYYSSEKAAHSMENGYSSAATVISGLKGPLSTLGGGVMNSAQKFFEADEHWGTEFAKLYYNIEG
notes: EsaD nuclease toxin of S. aureus, as m1; EsaE of S. aureus, as m2; EsaG of S. aureus, as m3; EsxB of S. aureus, as m4; EsxC of S. aureus, as m5; EsxD of S. aureus, as m6; Cross-linked with glutaraldehyde for the experiment on dimers-of-hexamers and for cryo-EM; also called EsaDEG-EsxBCD hexamer; EsxBCD-EsaDEG complex; not shown: His6, C-terminal, kept; twin-strep, C-terminal, kept; copies: + + + …

Biological target: the molecule itself
Experiment: cross-linking; purified complex from the major SEC peak at 0.5 mg/ml in 50 mM HEPES pH 7.5, 150 mM NaCl, 0.1% glutaraldehyde for 30 minutes at room temperature, quenched with tris; SEC and SDS-PAGE

Row | Protein | stoichiometry N
1 | B1 | 2
2 | B2 | 2
